Results published in the supplement of paper PMC10065799, “High-throughput profiling of sequence recognition by tyrosine kinases and SH2 domains using bacterial peptide display” (eLife, 2023).

Key:
AncSZ = test: phosphorylation enrichment, bacterial display (enrichment ratio); higher = better substrate or ligand; peptides without Tyr show the background
EPHB1 = EPHB1 (UniProt P54762); test: as above
EPHB2 = EPHB2 (UniProt P29323); test: as above
FGFR1 = FGFR1 (UniProt P11362); test: as above
FGFR3 = FGFR3 (UniProt P22607); test: as above
Fer (mouse) = test: as above
Fes = Fes (UniProt P07332); test: as above
Fyn = Fyn (UniProt P06241); test: as above
Hck = Hck (UniProt P08631); test: as above
Jak2 = Jak2 (UniProt O60674); test: as above
MERTK = MERTK (UniProt Q12866); test: as above
c-Abl (mouse) = test: as above
c-Src = test: as above
Grb2 SH2 = Grb2 SH2 (UniProt P62993); test: SH2 binding enrichment of the phosphorylated peptide, bacterial display (enrichment ratio); higher = better substrate or ligand; peptides without Tyr show the background
SHP2-C SH2 = test: as above
c-Src SH2 = test: as above
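Wherever SH2 binding enrichment of the phosphorylated peptide, bacterial display is given: peptide library displayed on the E. coli surface as eCPX fusions, selected cells deep-sequenced, score is each peptide's frequency after selection divided by its frequency in the input.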
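Wherever phosphorylation enrichment, bacterial display is given: 11-residue human phosphosite peptides and single-mutation variants displayed on the E. coli surface, counted by deep sequencing, each peptide's frequency after selection divided by its frequency in the unselected input library; frequency after pTyr selection over input frequency; kinase dosed for 20-30% of maximal phosphorylation in three min.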

Chain of Jak2 (O60674 whole entry, looked up): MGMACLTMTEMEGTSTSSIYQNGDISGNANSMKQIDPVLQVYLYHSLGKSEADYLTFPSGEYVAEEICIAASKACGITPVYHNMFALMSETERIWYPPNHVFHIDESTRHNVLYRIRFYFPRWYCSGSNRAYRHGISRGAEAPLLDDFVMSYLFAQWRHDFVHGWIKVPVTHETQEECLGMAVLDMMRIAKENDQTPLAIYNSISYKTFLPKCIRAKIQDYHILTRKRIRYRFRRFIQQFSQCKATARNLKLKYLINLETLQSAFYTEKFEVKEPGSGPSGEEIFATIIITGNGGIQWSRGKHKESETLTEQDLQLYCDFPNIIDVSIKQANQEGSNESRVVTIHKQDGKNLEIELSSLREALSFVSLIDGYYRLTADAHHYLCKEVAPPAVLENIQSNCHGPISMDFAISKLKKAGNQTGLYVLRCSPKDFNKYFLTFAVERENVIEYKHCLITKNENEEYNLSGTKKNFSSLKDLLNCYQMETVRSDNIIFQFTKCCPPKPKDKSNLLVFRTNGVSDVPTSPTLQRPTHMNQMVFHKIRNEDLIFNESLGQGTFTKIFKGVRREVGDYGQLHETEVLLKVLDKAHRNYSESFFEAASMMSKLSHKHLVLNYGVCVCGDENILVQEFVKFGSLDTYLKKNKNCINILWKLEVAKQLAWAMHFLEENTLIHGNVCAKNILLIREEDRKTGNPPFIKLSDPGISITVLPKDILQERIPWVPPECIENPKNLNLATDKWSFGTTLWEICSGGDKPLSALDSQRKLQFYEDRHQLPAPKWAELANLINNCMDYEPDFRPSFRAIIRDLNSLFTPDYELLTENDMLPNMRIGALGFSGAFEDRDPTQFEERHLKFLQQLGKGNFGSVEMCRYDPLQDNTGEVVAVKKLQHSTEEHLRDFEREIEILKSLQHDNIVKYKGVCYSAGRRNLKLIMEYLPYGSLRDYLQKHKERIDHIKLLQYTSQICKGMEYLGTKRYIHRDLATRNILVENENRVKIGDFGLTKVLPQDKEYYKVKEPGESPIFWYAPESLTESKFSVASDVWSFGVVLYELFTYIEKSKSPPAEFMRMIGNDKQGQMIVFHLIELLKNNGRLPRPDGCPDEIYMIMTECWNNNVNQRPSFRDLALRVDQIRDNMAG
Chain of Hck (P08631 whole entry, looked up): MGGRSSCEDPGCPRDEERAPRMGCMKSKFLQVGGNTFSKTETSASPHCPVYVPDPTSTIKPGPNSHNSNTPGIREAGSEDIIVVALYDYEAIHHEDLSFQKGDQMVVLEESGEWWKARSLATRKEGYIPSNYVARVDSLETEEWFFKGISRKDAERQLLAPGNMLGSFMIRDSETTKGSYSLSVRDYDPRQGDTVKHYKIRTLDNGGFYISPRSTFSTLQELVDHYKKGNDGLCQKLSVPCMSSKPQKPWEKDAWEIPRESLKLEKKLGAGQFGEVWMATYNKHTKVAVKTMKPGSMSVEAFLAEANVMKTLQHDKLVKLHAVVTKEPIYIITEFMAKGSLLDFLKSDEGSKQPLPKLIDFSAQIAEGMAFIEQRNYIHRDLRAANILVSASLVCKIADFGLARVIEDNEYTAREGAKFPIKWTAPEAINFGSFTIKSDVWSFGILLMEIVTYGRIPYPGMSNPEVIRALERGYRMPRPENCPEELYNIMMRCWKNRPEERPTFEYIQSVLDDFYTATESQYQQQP
Chain of FGFR3 (P22607 whole entry, looked up): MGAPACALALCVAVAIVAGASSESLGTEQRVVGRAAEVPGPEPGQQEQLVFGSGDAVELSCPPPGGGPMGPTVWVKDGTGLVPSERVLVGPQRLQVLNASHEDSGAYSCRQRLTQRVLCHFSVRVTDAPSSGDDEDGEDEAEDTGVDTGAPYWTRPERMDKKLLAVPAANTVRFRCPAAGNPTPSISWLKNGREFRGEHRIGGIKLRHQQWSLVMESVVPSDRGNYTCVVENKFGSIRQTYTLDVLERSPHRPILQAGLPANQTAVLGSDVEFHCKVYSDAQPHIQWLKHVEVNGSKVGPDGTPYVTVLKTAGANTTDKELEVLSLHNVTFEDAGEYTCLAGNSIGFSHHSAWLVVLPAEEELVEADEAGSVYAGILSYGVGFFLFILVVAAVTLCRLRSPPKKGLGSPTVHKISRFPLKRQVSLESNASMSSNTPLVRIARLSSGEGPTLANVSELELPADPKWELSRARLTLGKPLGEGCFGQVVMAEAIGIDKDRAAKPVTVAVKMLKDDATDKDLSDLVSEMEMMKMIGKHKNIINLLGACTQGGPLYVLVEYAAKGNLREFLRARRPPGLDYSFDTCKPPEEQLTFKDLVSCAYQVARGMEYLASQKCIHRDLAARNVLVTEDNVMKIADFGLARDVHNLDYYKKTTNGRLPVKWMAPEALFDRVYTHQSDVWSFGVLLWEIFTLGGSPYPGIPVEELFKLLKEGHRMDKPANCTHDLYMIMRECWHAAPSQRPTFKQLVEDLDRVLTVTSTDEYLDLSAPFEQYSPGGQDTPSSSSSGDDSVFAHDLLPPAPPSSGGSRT
Chain of EPHB2 (P29323 whole entry, looked up): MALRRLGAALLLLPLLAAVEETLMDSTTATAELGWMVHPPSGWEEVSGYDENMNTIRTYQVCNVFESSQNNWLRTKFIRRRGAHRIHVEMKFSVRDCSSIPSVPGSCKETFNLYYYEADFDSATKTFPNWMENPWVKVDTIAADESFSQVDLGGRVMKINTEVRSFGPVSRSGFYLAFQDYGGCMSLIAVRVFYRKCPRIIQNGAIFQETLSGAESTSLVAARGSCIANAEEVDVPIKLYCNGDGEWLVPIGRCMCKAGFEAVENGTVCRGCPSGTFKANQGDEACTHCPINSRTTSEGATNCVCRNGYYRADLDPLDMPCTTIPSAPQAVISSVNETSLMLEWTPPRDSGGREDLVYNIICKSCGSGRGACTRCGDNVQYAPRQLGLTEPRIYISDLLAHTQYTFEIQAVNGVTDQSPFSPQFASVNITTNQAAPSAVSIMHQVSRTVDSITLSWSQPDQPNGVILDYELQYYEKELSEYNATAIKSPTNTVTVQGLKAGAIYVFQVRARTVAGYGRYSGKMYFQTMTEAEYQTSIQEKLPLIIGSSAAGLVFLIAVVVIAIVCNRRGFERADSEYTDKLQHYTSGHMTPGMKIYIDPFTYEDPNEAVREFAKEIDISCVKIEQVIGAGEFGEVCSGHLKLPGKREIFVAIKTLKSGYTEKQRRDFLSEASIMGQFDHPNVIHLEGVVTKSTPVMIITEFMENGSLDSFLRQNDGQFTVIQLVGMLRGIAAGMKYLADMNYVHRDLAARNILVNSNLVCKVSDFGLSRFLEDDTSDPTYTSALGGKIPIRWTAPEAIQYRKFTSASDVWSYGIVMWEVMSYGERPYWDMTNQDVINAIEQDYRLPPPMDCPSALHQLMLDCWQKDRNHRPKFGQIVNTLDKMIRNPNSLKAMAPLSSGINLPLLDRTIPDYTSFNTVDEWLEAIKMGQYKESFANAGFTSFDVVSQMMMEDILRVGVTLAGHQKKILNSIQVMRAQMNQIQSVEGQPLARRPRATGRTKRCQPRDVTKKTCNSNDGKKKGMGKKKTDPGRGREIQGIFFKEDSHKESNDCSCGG
Chain of Fyn (P06241 whole entry, looked up): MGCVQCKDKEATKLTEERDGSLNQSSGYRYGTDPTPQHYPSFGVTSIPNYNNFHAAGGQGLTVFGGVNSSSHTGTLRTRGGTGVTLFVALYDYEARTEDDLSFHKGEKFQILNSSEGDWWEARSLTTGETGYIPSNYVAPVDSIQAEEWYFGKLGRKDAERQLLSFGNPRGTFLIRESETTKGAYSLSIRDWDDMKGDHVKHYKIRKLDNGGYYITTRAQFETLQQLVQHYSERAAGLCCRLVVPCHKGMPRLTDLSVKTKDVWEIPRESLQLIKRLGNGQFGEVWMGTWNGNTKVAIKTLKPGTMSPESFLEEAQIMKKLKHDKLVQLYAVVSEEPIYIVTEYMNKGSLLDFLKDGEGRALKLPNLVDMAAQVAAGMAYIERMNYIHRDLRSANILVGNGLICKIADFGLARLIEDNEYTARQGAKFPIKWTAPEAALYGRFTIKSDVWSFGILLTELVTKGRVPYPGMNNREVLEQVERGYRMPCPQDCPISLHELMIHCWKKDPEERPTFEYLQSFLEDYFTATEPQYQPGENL
Chain of MERTK (Q12866 whole entry, looked up): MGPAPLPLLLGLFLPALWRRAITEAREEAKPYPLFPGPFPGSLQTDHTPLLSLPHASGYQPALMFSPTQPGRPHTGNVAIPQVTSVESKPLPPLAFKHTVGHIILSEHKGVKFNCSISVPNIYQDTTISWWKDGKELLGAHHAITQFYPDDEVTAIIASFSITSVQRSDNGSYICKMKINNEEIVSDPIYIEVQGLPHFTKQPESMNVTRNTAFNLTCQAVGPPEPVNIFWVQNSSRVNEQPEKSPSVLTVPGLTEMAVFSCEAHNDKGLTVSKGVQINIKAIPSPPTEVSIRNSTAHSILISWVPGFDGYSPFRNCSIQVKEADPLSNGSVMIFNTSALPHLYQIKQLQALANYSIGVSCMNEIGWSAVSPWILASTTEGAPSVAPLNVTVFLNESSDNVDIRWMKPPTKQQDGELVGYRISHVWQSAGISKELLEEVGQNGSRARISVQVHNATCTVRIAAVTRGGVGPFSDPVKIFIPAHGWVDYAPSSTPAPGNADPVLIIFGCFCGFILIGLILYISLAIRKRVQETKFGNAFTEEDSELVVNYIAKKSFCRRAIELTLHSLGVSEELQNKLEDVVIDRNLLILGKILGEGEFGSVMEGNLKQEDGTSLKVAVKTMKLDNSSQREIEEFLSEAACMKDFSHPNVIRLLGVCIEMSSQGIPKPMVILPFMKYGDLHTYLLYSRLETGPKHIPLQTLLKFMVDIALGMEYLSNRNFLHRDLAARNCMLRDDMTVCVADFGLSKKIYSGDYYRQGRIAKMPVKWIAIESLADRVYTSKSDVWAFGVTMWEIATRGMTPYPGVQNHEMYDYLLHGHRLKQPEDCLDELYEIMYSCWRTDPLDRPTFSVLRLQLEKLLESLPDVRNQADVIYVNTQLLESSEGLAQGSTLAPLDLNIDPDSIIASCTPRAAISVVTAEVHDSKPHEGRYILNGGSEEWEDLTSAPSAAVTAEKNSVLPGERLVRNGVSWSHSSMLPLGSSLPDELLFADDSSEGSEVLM

Sequence | SH2 binding enrichment (Grb2 SH2) | SH2 binding enrichment (SHP2-C SH2) | SH2 binding enrichment (c-Src SH2) | phosphorylation enrichment (AncSZ) | phosphorylation enrichment (EPHB1) | phosphorylation enrichment (EPHB2) | phosphorylation enrichment (FGFR1) | phosphorylation enrichment (FGFR3) | phosphorylation enrichment (Fer (mouse)) | phosphorylation enrichment (Fes) | phosphorylation enrichment (Fyn) | phosphorylation enrichment (Hck) | phosphorylation enrichment (Jak2) | phosphorylation enrichment (MERTK) | phosphorylation enrichment (c-Abl (mouse)) | phosphorylation enrichment (c-Src)
VDTRAYFTSAT [MT-CO1_Y304] | 1.01 | 0.678 | 0.693 | 0.61 | 0.37 | 0.361 | 0.397 | 0.459 | 0.256 | 0.687 | 0.39 | 0.479 | 0.525 | 0.366 | 0.382 | 0.38
ESMLRYDVFGG [STOX1_Y607_E608D_YF] | 1.1 | 0.627 | 1.56 | 0.933 | 0.445 | 0.631 | 0.508 | 0.685 | 0.536 | 0.846 | 0.636 | 0.619 | 0.91 | 2.37 | 0.582 | 1.1
RENGPYYASYP [GDAP2_Y487_T489A] | 0.822 | 1.13 | 0.705 | 1.04 | 1.58 | 5.74 | 2.29 | 1.92 | 0.691 | 0.869 | 8.25 | 5.46 | 0.661 | 7.74 | 1.94 | 7.26
SSMIDYNLLEK [MYOC_Y479_P481L] | 0.822 | 0.692 | 0.723 | 0.855 | 0.455 | 0.563 | 0.526 | 0.698 | 0.417 | 0.954 | 0.482 | 0.518 | 0.968 | 0.434 | 0.685 | 0.409
YTGSTYRVGDT [FN1_Y106_N104S] | 0.836 | 0.902 | 0.538 | 0.72 | 0.422 | 0.453 | 0.726 | 0.58 | 0.405 | 0.748 | 0.464 | 0.529 | 0.715 | 0.355 | 0.595 | 0.48
PTTKTYFPHFH [HBA1_Y43_D48H] | 0.971 | 0.981 | 0.761 | 0.721 | 0.457 | 0.399 | 0.602 | 0.559 | 0.496 | 1.14 | 0.598 | 0.688 | 0.951 | 0.605 | 0.676 | 0.655
KPNMNYDKLSR [FLI1_Y332] | 0.895 | 0.725 | 1.59 | 0.548 | 0.494 | 0.541 | 0.416 | 0.4 | 0.324 | 0.486 | 0.342 | 0.454 | 0.389 | 0.337 | 0.459 | 0.418
KIIATYRLCSE [DNAH3_Y1586_V1583I] | 0.74 | 0.611 | 0.574 | 0.887 | 0.596 | 0.51 | 0.431 | 0.678 | 0.477 | 0.951 | 0.407 | 0.462 | 0.808 | 0.354 | 0.693 | 0.421
TNYRFYLRSLE [MTM1_Y71_L70F] | 0.895 | 0.717 | 0.495 | 1.19 | 0.619 | 0.532 | 0.438 | 0.855 | 0.421 | 1.18 | 0.48 | 0.558 | 1.09 | 0.423 | 0.835 | 0.41
ENAGYYFRISA | 0.661 | 0.776 | 0.6 | 1.51 | 0.797 | 0.781 | 0.527 | 0.852 | 0.523 | 1.48 | 0.488 | 0.534 | 1.36 | 0.369 | 0.764 | 0.356
WCSNDYLGMSQ [ALAS2_Y199_R204Q] | 1.1 | 0.738 | 0.717 | 2.88 | 1.52 | 0.944 | 3.03 | 2.11 | 0.642 | 1.02 | 0.541 | 0.738 | 4.19 | 0.478 | 0.782 | 1.06
TRDVNYGWVIR [MT-CYB_Y75_I78V] | 1.13 | 0.604 | 0.654 | 1.16 | 0.947 | 1.27 | 0.612 | 0.869 | 1.05 | 1.45 | 0.647 | 0.806 | 1.22 | 1.12 | 0.841 | 0.576
KIVYVYVKKRS [DNAI2_Y7_E2K] | 0.745 | 0.848 | 0.537 | 1.13 | 0.577 | 0.538 | 0.531 | 0.654 | 0.514 | 1.17 | 0.515 | 0.587 | 1.17 | 0.507 | 0.758 | 0.433
ADCRYYAFPQM [GAMT_Y223] | 0.862 | 0.656 | 1.84 | 4.46 | 9.71 | 10.8 | 11 | 8.74 | 8.45 | 1.33 | 2.75 | 3.1 | 5.86 | 9.72 | 7.97 | 3.76
FKDGQYWIRGR [ACSF3_Y466] | 0.825 | 0.359 | 0.46 | 0.78 | 0.317 | 0.369 | 0.361 | 0.482 | 0.387 | 0.862 | 0.448 | 0.614 | 0.671 | 0.379 | 0.491 | 0.501
KASGKYYAMKI [AKT3_Y173] | 1.38 | 1.21 | 1.45 | 0.499 | 0.329 | 0.411 | 0.565 | 0.536 | 0.335 | 0.563 | 0.359 | 0.529 | 0.431 | 0.455 | 0.518 | 0.399
KSRQIYDAYIM [GRK3_Y109_R104K] | 0.955 | 0.834 | 0.683 | 0.797 | 2.98 | 7 | 0.505 | 0.546 | 12.4 | 0.735 | 11.1 | 8.38 | 0.581 | 6.9 | 5.89 | 8.25
DISEPYEVFRI [IRF8_Y107_K108E_YF] | 1.03 | 0.916 | 0.663 | 2.21 | 0.665 | 0.559 | 0.661 | 0.725 | 12.3 | 1.15 | 1.91 | 1.81 | 1.09 | 0.572 | 1.09 | 4.48
REEKNYKLKET [BCLAF1_Y459] | 1.16 | 0.956 | 0.627 | 0.996 | 0.691 | 0.799 | 0.733 | 0.714 | 1.3 | 1.21 | 0.843 | 0.861 | 1.5 | 1.14 | 1.16 | 1.28
PIAPVYAASMV [ACAT1_Y331] | 0.882 | 0.699 | 0.506 | 0.837 | 2.45 | 2.19 | 0.744 | 0.548 | 8.12 | 1.07 | 14.3 | 13.5 | 1.34 | 5.19 | 48.5 | 10.5

Further lines, with some results ahead:

SH2 binding enrichment (Grb2 SH2) | SH2 binding enrichment (SHP2-C SH2) | SH2 binding enrichment (c-Src SH2) | Sequence | phosphorylation enrichment (AncSZ) | phosphorylation enrichment (EPHB1) | phosphorylation enrichment (EPHB2) | phosphorylation enrichment (FGFR1) | phosphorylation enrichment (FGFR3) | phosphorylation enrichment (Fer (mouse)) | phosphorylation enrichment (Fes) | phosphorylation enrichment (Fyn) | phosphorylation enrichment (Hck) | phosphorylation enrichment (Jak2) | phosphorylation enrichment (MERTK) | phosphorylation enrichment (c-Abl (mouse)) | phosphorylation enrichment (c-Src)
0.51 | 0.613 | 0.264 | FFRKFYNKSED [RYR1_Y4864] | 0.794 | 0.386 | 0.57 | 0.484 | 0.562 | 0.353 | 0.718 | 0.458 | 0.41 | 0.622 | 0.424 | 0.421 | 0.388
1.26 | 1.1 | 0.781 | NFATLYLKIFH [PDE6B_Y219_YF] | 1.21 | 0.604 | 0.599 | 0.669 | 0.734 | 0.502 | 1.27 | 0.412 | 0.497 | 0.953 | 0.457 | 0.83 | 0.434
1.78 | 1.62 | 1.49 | KVALLYKPFFF [POLE_Y100_P99L_YF] | 1.15 | 0.516 | 0.606 | 0.496 | 0.704 | 1.39 | 1.17 | 0.827 | 0.82 | 1.12 | 0.772 | 0.921 | 1.67
0.762 | 0.797 | 10.6 | QRDSSYYWEIE [RAF1_Y340] | 1.3 | 2.77 | 1.14 | 3.91 | 3.03 | 0.536 | 1.09 | 2.12 | 0.981 | 1.13 | 3.5 | 0.744 | 1.95
0.94 | 0.945 | 0.632 | TYGNLYGSRKQ [YIPF7_Y59_A54T] | 0.655 | 0.434 | 0.74 | 0.486 | 0.467 | 1.38 | 0.6 | 6.14 | 13.2 | 0.73 | 0.89 | 0.864 | 7.59
0.775 | 0.958 | 0.634 | GPCKAYELSQR [SETX_Y1297_R1294C] | 0.735 | 0.416 | 0.63 | 0.547 | 0.547 | 0.496 | 0.969 | 0.533 | 0.467 | 0.66 | 0.451 | 0.664 | 0.546
0.99 | 0.501 | 0.74 | LKLWDYSRGRC [WDR5B_Y239] | 0.966 | 0.73 | 1.01 | 0.597 | 0.694 | 0.796 | 1.19 | 0.66 | 0.451 | 0.724 | 0.736 | 0.643 | 0.39
1.19 | 0.657 | 0.663 | QNTGFYFDLFG [PTPN11_Y62_D61Y_YF] | 1.89 | 1.6 | 1.25 | 3.04 | 2.42 | 1.12 | 2.16 | 0.668 | 0.742 | 2.66 | 2.75 | 1.36 | 0.681
0.839 | 1.53 | 0.812 | ISHVAYCVLGK [TRRAP_Y892_R893C] | 1.3 | 0.731 | 0.79 | 0.73 | 0.834 | 0.952 | 1.49 | 0.675 | 1.09 | 1.17 | 1.14 | 1.03 | 0.523
0.789 | 1.02 | 0.524 | IENPQYFSDAC [NTRK1_Y496] | 1.13 | 0.648 | 0.616 | 0.673 | 0.962 | 0.524 | 1.24 | 0.516 | 0.626 | 1.14 | 0.546 | 1.01 | 0.542
0.779 | 0.994 | 0.538 | NVTGHYIPPFH [PPA2_Y59_S61P] | 0.518 | 0.455 | 0.393 | 0.396 | 0.463 | 0.395 | 0.679 | 0.445 | 0.418 | 0.498 | 0.659 | 0.735 | 0.443
1.14 | 0.767 | 0.402 | RRQDLYSARDL [SART1_Y249] | 1.45 | 0.576 | 0.367 | 0.586 | 0.615 | 0.401 | 0.744 | 0.972 | 5.63 | 0.663 | 1.55 | 0.525 | 1.21
1.71 | 1.73 | 1.23 | CTIIHYNFMCN [TP53_Y234_T231I_YF] | 1.12 | 0.718 | 0.553 | 0.524 | 0.993 | 0.686 | 1.54 | 0.482 | 0.56 | 1.5 | 0.434 | 0.825 | 0.445
